{"source": "paper PMC7484323", "about": "(Molecular pharmaceutics, 2020)", "origin": "cited, not measured here", "test_system": "B16/F1 melanoma", "conditions": "2 h post-injection", "data": [{"substance": "hydrazinonicotinamide (HYNIC)-GGNle-CycMSHhex (sidechain bridge or staple) [99mTc(EDDA)-HYNIC-GGNle-CycMSHhex]", "values": [{"measurement": "kidney (renal) uptake", "value": "7.52 ± 0.96", "unit": "%ID/g"}, {"measurement": "liver uptake", "value": "0.52 ± 0.05", "unit": "%ID/g"}, {"measurement": "tumor uptake", "setting": "B16/F1 melanoma", "value": "14.14 ± 4.90", "unit": "%ID/g"}]}]}
